Test results as given in paper PMC5374433, “Theranostic Value of Multimers: Lessons Learned from Trimerization of Neurotensin Receptor Ligands and Other Targeting Vectors” (Pharmaceuticals, 2017).
Where two headings read alike, the source gives them in different places.

How the values were obtained:
[1] = tested on: HT29 xenografted nude mice; test: Biodistribution in HT29 tumor-bearing nude mice; format: in vivo, mouse
Experimental: (§1) For in vivo evaluation of [^68Ga]Ga-TRAP(NT4)3 the NTS1-positive human colorectal adenocarcinoma cells HT29 were injected in nude mice to generate a subcutaneous tumor. The radioligand was injected in the tail vein of the mice and the biodistribution was determined 60 and 90 min after tracer injection. […] The clearance rate of [^68Ga]Ga-TRAP(NT4)3 in these excretion organs was apparently low. […] (1.44 %ID/g). Blocking experiments were performed to confirm the specificity of the tumor uptake of [^68Ga]Ga-TRAP(NT4)3 in vivo. Therefore, TRAP(NT4)3 (20 nmol) or NT4 (100 nmol) were co-injected together with the radiotracer to define the nonspecific uptake of the tracer in the tumor region. […] Apart from the intestine, the uptake in all other organs was not affected by the blocking substances (Table 2), confirming the receptor-mediated uptake of [^68Ga]Ga-TRAP(NT4)3, as it was reported that NTS receptors are expressed in the small intestine of mice.
(§2) All animal experiments were performed in compliance with the protocols approved by the local Animal Protection Authorities (Regierung Mittelfranken, Germany, no. 54-2532.1-15/08). Female athymic NMRI nude mice (nu/nu) were obtained from Harlan Winkelmann GmbH (Borchen, Germany) at four weeks of age and were kept under standard conditions (12 h light/dark) with food and water available ad libitum for at least five weeks. HT29 tumors were generated as described before.
(§3) HT29 xenografted nude mice were injected with [^68Ga]Ga-TRAP(NT4)3 into a tail vein (2.5–7.5 MBq/mouse). The animals were killed by cervical dislocation 60 or 90 min p.i. The tumors, other tissues (lung, liver, kidneys, heart, spleen, brain, muscle, femur, and intestine) and blood were removed and weighed. Radioactivity of the samples was measured using a γ-counter and expressed as the percentage of injected dose per gram of tissue (%ID/g), from which tumor-to-blood ratios were calculated. Blocking experiments were carried out by co-injecting randomly chosen mice with TRAP(NT4)3 (20 nmol/mouse) or NT4 (100 nmol/mouse) together with the radiotracer. These mice were killed by cervical dislocation at 60 min p.i., and organs and tissue were removed, weighed, and counted as described above.

[2] = Biodistribution in HT29 tumor-bearing nude mice; format: in vivo, mouse; details: mouse; for tissue uptake at 1.5 h / tissue uptake at 1 h: in vivo
Experimental: as §1, §2, §3

[3] = Small animal PET imaging of HT29 tumor-bearing mice; details: mouse, in vivo, molar radioactivities of more than 20 MBq/nmol, read-out: highest tumor uptake values by PET
Experimental: The highest tumor uptake values of approximately 2 %ID/g were determined with molar radioactivities of more than 20 MBq/nmol. […] Considering all eight mice, which were repeatedly measured by PET with varying molar radioactivities of [^68Ga]Ga-TRAP(NT4)3, a good correlation of molar radioactivity and tumor uptake could be observed (Figure 4b; r = 0.713, Spearman correlation, p < 0.0004).
PET scans and image analysis were performed using a small-animal PET scanner (Inveon, Siemens Medical Solutions, Erlangen, Germany). About 1.5–4 MBq of [^68Ga]Ga-TRAP(NT4)3 with varying amounts of 0.02–10 nmol TRAP(NT4)3 were intravenously injected into the mice under isoflurane anesthesia (4%). Animals were subjected to a 60 min dynamic scan starting with tracer injection. After iterative maximum a posteriori image reconstruction of the decay- and attenuation-corrected images, regions of interest (ROIs) were drawn over the tumor. The radioactivity concentration within the tumor region was obtained from the mean value within the multiple ROIs and then converted to SUV relative to the injected dose and the individual body weight.

[4] = format: in vivo; details: mouse blood sample taken 5 min after injection, HPLC
Experimental: The in vivo stability of [^68Ga]Ga-TRAP(NT4)3 was measured from a blood sample taken 5 min after injection in mice. […] Unfortunately, it was not possible to determine the stability at later time points due to the low amount of residual radioactivity in the blood.

[5] = molecular target: human NTS1 (Homo sapiens, UniProt P30989); test: Competitive radioligand binding assay, NTS1; details: Ki (NTS1, nM), membranes of CHO cells stably expressing human NTS1; mean ± SEM, 4-8 experiments
Chain of human NTS1 (P30989 whole entry): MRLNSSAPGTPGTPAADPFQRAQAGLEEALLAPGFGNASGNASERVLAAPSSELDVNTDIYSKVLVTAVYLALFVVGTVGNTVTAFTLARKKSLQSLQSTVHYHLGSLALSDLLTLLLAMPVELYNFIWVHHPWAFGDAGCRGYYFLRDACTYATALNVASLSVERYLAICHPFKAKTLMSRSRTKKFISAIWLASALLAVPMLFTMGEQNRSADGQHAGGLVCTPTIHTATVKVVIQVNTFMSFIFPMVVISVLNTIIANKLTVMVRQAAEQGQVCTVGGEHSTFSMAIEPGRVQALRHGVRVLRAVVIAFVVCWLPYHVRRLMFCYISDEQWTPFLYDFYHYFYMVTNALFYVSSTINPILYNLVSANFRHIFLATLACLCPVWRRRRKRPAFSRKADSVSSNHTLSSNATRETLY
Experimental: Receptor binding data were performed as described previously. […] NTS2 binding was conducted using homogenates of membranes from HEK 293 cells transiently transfected with pcDNA3.1 carrying the human NTS2 gene (Missouri S&T cDNA Resource Center (UMR), Rolla, MO, USA) using the Mirus TransIT-293 transfection reagent (MoBiTec, Göttingen, Germany) according to the manufacturer’s protocol.
Data analysis of the competition binding curves from the radioligand displacement experiments was done by non-linear regression analysis when applying the algorithms of the PRISM 6.0 software package (GraphPad Software, San Diego, CA, USA). EC50 values were derived from each dose-response curve and were subsequently transformed into the corresponding Ki values by applying the equation of Cheng and Prusoff. Mean Ki values and the corresponding S.E.M. values (standard error of the mean) were determined by analyzing four to eight individual experiments.

With `CC(C)C[C@H](NC(=O)[C@@H](NC(=O)[C@H](Cc1ccc(O)cc1)NC(=O)[C@@H]1CCCN1C(=O)[C@H](CCCCN)NC(=O)CN(CCCCN)C(=O)[C@@H](N)CCCCn1cc(CNC(=O)CCP(=O)(O)CN2CCN(CP(=O)(O)CCC(=O)NCc3cn(CCCC[C@H](N)C(=O)N(CCCCN)CC(=O)N[C@@H](CCCCN)C(=O)N4CCC[C@H]4C(=O)N[C@@H](Cc4ccc(O)cc4)C(=O)N[C@H](C(=O)N[C@@H](CC(C)C)C(=O)O)C(C)(C)C)nn3)CCN(CP(=O)(O)CCC(=O)NCc3cn(CCCC[C@H](N)C(=O)N(CCCCN)CC(=O)N[C@@H](CCCCN)C(=O)N4CCC[C@H]4C(=O)N[C@@H](Cc4ccc(O)cc4)C(=O)N[C@H](C(=O)N[C@@H](CC(C)C)C(=O)O)C(C)(C)C)nn3)CC2)nn1)C(C)(C)C)C(=O)O` (single isomer, unassigned) [[^68Ga]Ga-TRAP(NT4)3, metal not drawn] the HT29 tumor uptake ([1]; 60 min p.i.) was 1.74 ± 0.21 %ID/g, the “tumor uptake compared to monomeric analogs” value ([1]; HT29 tumor) was “two-fold” and the tissue to tissue ratio at 1 h ([2]; female, athymic NMRI nude (nu/nu), HT29 tumor / blood, iv, total radioactivity, 60 min p.i.) was 13. It also gave a tissue to tissue ratio at 1.5 h ([2]; female, athymic NMRI nude (nu/nu), HT29 tumor / blood, iv, total radioactivity, 90 min p.i.) of 36, an SUV at 1 h ([2]; female, athymic NMRI nude (nu/nu), HT29 tumor, iv, total radioactivity, 60 min p.i., equals 1.7 %ID/g) of about 0.7 SUV and a tissue uptake at 1.5 h ([2]; 60 and 90 min p.i., read-out: uptake in the liver) of 11 to 12 %ID/g. For the same compound, the tissue uptake at 1.5 h ([2]; 60 and 90 min p.i., read-out: uptake values in the kidneys) was 55 to 102 %ID/g, the tissue uptake at 1 h ([2]; 60 min p.i., blocking: co-injection of NT4 (100 nmol per mouse), read-out: HT29 tumor uptake) was 0.6 ± 0.13 %ID/g and the tissue uptake at 1 h ([2]; 60 min p.i., blocking: co-injection of NT4 (100 nmol per mouse), read-out: blood uptake) was 0.4 ± 0.01 %ID/g. The tissue uptake at 1 h ([2]; 60 min p.i., blocking: co-injection of NT4 (100 nmol per mouse), read-out: brain uptake) was 0.07 ± 0.02 %ID/g, the tissue uptake at 1 h ([2]; 60 min p.i., blocking: co-injection of NT4 (100 nmol per mouse), read-out: femur uptake) was 1.72 ± 0.12 %ID/g and the tissue uptake at 1 h ([2]; 60 min p.i., blocking: co-injection of NT4 (100 nmol per mouse), read-out: heart uptake) was 0.45 ± 0.13 %ID/g. The tissue uptake at 1 h ([2]; 60 min p.i., blocking: co-injection of NT4 (100 nmol per mouse), read-out: intestine uptake) was 0.49 ± 0.07 %ID/g, the tissue uptake at 1 h ([2]; 60 min p.i., blocking: co-injection of NT4 (100 nmol per mouse), read-out: kidney uptake) was 99.9 ± 15.5 %ID/g and the tissue uptake at 1 h ([2]; 60 min p.i., blocking: co-injection of NT4 (100 nmol per mouse), read-out: liver uptake) was 11.2 ± 2.27 %ID/g. The tissue uptake at 1 h ([2]; 60 min p.i., blocking: co-injection of NT4 (100 nmol per mouse), read-out: lung uptake) was 6.06 ± 1.19 %ID/g, the tissue uptake at 1 h ([2]; 60 min p.i., blocking: co-injection of NT4 (100 nmol per mouse), read-out: muscle uptake) was 0.16 ± 0.03 %ID/g and the tissue uptake at 1 h ([2]; 60 min p.i., blocking: co-injection of NT4 (100 nmol per mouse), read-out: spleen uptake) was 3.75 ± 0.81 %ID/g. For the same compound, the tissue uptake at 1 h ([2]; 60 min p.i., blocking: co-injection of TRAP(NT4)3 (20 nmol per mouse), read-out: HT29 tumor uptake) was 1.1 ± 0.2 %ID/g, the tissue uptake at 1 h ([2]; 60 min p.i., blocking: co-injection of TRAP(NT4)3 (20 nmol per mouse), read-out: blood uptake) was 0.07 ± 0.01 %ID/g and the tissue uptake at 1 h ([2]; 60 min p.i., blocking: co-injection of TRAP(NT4)3 (20 nmol per mouse), read-out: brain uptake) was 0.06 ± 0.07 %ID/g. It also gave a tissue uptake at 1 h ([2]; 60 min p.i., blocking: co-injection of TRAP(NT4)3 (20 nmol per mouse), read-out: femur uptake) of 0.74 ± 0.14 %ID/g, a tissue uptake at 1 h ([2]; 60 min p.i., blocking: co-injection of TRAP(NT4)3 (20 nmol per mouse), read-out: heart uptake) of 0.15 ± 0.11 %ID/g and a tissue uptake at 1 h ([2]; 60 min p.i., blocking: co-injection of TRAP(NT4)3 (20 nmol per mouse), read-out: intestine uptake) of 0.49 ± 0.08 %ID/g. It also gave a tissue uptake at 1 h ([2]; 60 min p.i., blocking: co-injection of TRAP(NT4)3 (20 nmol per mouse), read-out: kidney uptake) of 96.3 ± 8.83 %ID/g, a tissue uptake at 1 h ([2]; 60 min p.i., blocking: co-injection of TRAP(NT4)3 (20 nmol per mouse), read-out: liver uptake) of 8.3 ± 0.87 %ID/g and a tissue uptake at 1 h ([2]; 60 min p.i., blocking: co-injection of TRAP(NT4)3 (20 nmol per mouse), read-out: lung uptake) of 1.61 ± 0.42 %ID/g. The tissue uptake at 1 h ([2]; 60 min p.i., blocking: co-injection of TRAP(NT4)3 (20 nmol per mouse), read-out: muscle uptake) was 0.1 ± 0.05 %ID/g, the tissue uptake at 1 h ([2]; 60 min p.i., blocking: co-injection of TRAP(NT4)3 (20 nmol per mouse), read-out: spleen uptake) was 2.2 ± 0.39 %ID/g and the tissue uptake at 1 h ([2]; 60 min p.i., read-out: HT29 tumor uptake) was 1.7 %ID/g. The tissue uptake at 1 h ([2]; 60 min p.i., read-out: blood uptake) was 0.13 ± 0.02 %ID/g, the tissue uptake at 1 h ([2]; 60 min p.i., read-out: brain uptake) was 0.04 ± 0.01 %ID/g and the tissue uptake at 1 h ([2]; 60 min p.i., read-out: femur uptake) was 1.51 ± 0.12 %ID/g. The tissue uptake at 1 h ([2]; 60 min p.i., read-out: heart uptake) was 0.13 ± 0.02 %ID/g, the tissue uptake at 1 h ([2]; 60 min p.i., read-out: intestine uptake) was 1.5 ± 0.42 %ID/g and the tissue uptake at 1 h ([2]; 60 min p.i., read-out: kidney uptake) was 94.5 ± 10.8 %ID/g. The tissue uptake at 1 h ([2]; 60 min p.i., read-out: liver uptake) was 11.2 ± 0.3 %ID/g, the tissue uptake at 1 h ([2]; 60 min p.i., read-out: lung uptake) was 2.76 ± 0.53 %ID/g and the tissue uptake at 1 h ([2]; 60 min p.i., read-out: muscle uptake) was 0.09 ± 0.03 %ID/g. For the same compound, the tissue uptake at 1 h ([2]; 60 min p.i., read-out: spleen uptake) was 3.72 ± 0.09 %ID/g, the tissue uptake at 1.5 h ([2]; 90 min p.i., read-out: HT29 tumor uptake) was 1.44 ± 0.13 %ID/g and the tissue uptake at 1.5 h ([2]; 90 min p.i., read-out: blood uptake) was 0.04 ± 0.02 %ID/g. The tissue uptake at 1.5 h ([2]; 90 min p.i., read-out: brain uptake) was 0.02 ± 0.01 %ID/g, the tissue uptake at 1.5 h ([2]; 90 min p.i., read-out: femur uptake) was 1.17 ± 0.21 %ID/g and the tissue uptake at 1.5 h ([2]; 90 min p.i., read-out: heart uptake) was 0.35 ± 0.37 %ID/g. The tissue uptake at 1.5 h ([2]; 90 min p.i., read-out: intestine uptake) was 1.31 ± 0.2 %ID/g, the tissue uptake at 1.5 h ([2]; 90 min p.i., read-out: kidney uptake) was 102 ± 29.9 %ID/g and the tissue uptake at 1.5 h ([2]; 90 min p.i., read-out: liver uptake) was 11.7 ± 0.48 %ID/g. For the same compound, the tissue uptake at 1.5 h ([2]; 90 min p.i., read-out: lung uptake) was 2.37 ± 0.21 %ID/g, the tissue uptake at 1.5 h ([2]; 90 min p.i., read-out: muscle uptake) was 0.11 ± 0.08 %ID/g and the tissue uptake at 1.5 h ([2]; 90 min p.i., read-out: spleen uptake) was 3.45 ± 0.38 %ID/g. For the same compound, the tissue uptake [3] was about 2 %ID/g, the “formation of a more hydrophilic radiometabolite” value [4] was 8% and the Ki [5] was 0.1 nM.
